The values that follow come from patent US20240173377A1 (published 2024).

Holding throughout (experiment): HLA class II competition binding assay
In assay [1] the target is HLA DRB1*0301 (human).
Assay [2] addresses HLA DRB1*1301 (human).
For assay [3], the target named is HLA DRB1*1101 (human).
Assay [4] concerns the target HLA DRB1*0101 (human).
Assay [5] addresses HLA DRB1*0401 (human).
The target of assay [6] is HLA DRB1*0701 (human).
Assay [7] deals with HLA DRB1*1501 (human).

On to EEQYNSTYTVVSVLTVLHQD [SEQ ID NO 114], for which the IC50 in assay [1] was found to be 1570 nM; in assay [2] it was 1860 nM; in assay [3], 84 nM; in assay [4], 19 nM; in assay [5], 1210 nM; in assay [6] it was 115 nM. Moreover, the concentration for half-maximal inhibition (IC50) in assay [7] turned out to be 2110 nM.

In general, IC50 refers to the concentration at which inhibition is half-maximal.
